Reference: patent US20230212286A1 (INNOBATION BIO, published 2023)
Residue numbers refer to the chain shown, from its start.

B1: 1C2 antibody (antibody, V domains shown)
VH: QVQLQQPGAELVRPGASVKLSCKASGYTFTSYWMNWVKQRPGQGLEWIGMIDPSDSETHYNQMFKDKATLTVDKSSSTAYMQLSSLTSEDSAVYYCARWGNYDYDVWAMDYWGQGTSVTVSS
VL: DVLMTQTPLSLPVSLGDQASISCRSSQNIVHLNGNTFLEWFLQKPGQSPKLLIYKVSNRFSGVPDRFSGSGSGTDFTLKISRVEAEDLGVYYCFQGSHVPYTFGGGTKLEIK
notes: Monoclonal antibody from a hybridoma (fusion with mouse myeloma cells), detected in FACS with goat anti-mouse IgG
B2: 6B3 antibody (antibody, V domains shown)
VH: EVQLQQSGPELVKPGASVKISCKASGYTFTDYNMHWVKQSHGKSLEWIGYIYPYNGGTGYKQKFKSKATLTVDNSSSTAYMELRSLTSEDSAVYYCARLYYYGRTSYWGQGTTLTVSS
VL: DIVMTQSQKFMSTSVGDRVSVTCKASQNVGTYVAWYQQKPGQSPKALIYSASYRYSGVPDRFTGSGSGTDFTLTISIVQSEDLAEYFCHQYDSYPYTFGGGTKLEIK
notes: Monoclonal antibody from a hybridoma, detected in FACS with goat anti-mouse IgG
B3: 2A9 antibody (antibody, V domains shown)
VH: EVQLEESGAELVKPGASVKMSCKAFGYTFTTYPIEWMKQNHGKSLEWIGNFHPYNDDTKYNEKFKGKAKLTVEKSSSTVYLELSRLTSDDSAVYYCARGDYYVSSWYFDVWGAGTTVTVSS
VL: B2 VL with Y32N, I77N, H89Q, D92N, Y96L, G100S
notes: as for B2
B4: 9E9 antibody (antibody, V domains shown)
VH: EVQLEESGAELVRPGSSVKISCKASGYAFSIYWMNWVKQRPGQGLEWIGQIYPGDGDTNYNGKFKGKATLTADKSSSTAYMQLSSLTSEDSAVYFCARRGITPWFAYWGQGTLVTVSA
VL: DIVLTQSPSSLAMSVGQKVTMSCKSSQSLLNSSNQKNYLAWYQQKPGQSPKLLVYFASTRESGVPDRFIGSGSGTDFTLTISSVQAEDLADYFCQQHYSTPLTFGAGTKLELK
notes: as for B2
B5: 2G1 antibody (antibody, V domains shown)
VH: EVQLQESGPGLVAPSQSLSITCTVSGFSLTSYDISWIRQPPGKGLEWLGVIWTGGGTNYNSAFMSRLSISKDNSKSQVFLKMNSLQTDDTAIYYCVPHYYGYAMDYWGQGTSVTVSS
VL: DIVLTQSPSSLSASLGGKVTITCKASQDINKYIAWYQHKPGKGPRLLIHYTSTLQPGIPSRFSGSGSGRDYSFSISNLEPEDIATYYCLQYDNLLTFGAGTKLELK
notes: as for B2

Each binder was assayed against T1, CD22-His tag (CD22 extracellular domain; Acrobiosystems Inc.) (UniProt P20273 20-687, limits assumed) (assay: ELISA, CD22-His tag coated at 100 ng/well, primary antibody 0.4 ug/ml).
T1 construct: extracellular domain; Bought reagent coated at 100 ng/well; also called CD22 peptide; not shown: His tag
T1 sequence (looked up): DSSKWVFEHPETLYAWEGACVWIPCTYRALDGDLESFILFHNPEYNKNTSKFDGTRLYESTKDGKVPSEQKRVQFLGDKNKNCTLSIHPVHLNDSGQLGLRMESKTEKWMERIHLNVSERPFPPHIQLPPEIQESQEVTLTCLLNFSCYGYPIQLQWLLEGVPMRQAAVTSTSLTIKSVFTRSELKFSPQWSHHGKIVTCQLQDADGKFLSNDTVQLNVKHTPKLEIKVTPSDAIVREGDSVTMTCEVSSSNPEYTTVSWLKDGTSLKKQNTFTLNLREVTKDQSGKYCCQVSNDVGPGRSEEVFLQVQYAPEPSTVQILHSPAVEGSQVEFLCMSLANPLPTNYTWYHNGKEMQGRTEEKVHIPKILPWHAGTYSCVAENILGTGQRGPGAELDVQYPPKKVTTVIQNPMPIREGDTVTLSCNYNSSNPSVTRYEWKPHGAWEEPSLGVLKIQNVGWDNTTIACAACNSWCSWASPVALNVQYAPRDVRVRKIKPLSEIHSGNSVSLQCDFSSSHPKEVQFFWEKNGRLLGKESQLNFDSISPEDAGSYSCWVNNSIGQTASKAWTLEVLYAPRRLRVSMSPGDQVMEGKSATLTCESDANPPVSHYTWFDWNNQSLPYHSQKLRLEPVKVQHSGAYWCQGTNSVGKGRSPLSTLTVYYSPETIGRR
Description: 1C2, 9E9, 2A9, 2G1 and 6B3 antibodies were treated in each well, and then reacted at room temperature for 2 hours, and then washed 3 times with 1 X PBST. Secondary antibody ([…], 1:10,000) was treated and reacted at room temperature for 30 minutes, washed 3 times with 1 X PBST, and then treated with TMB for color development and reacted at room temperature for 5 minutes. Finally, the reaction was terminated by treatment with a stop solution of 1N H₂SO₄, and then the absorbance was measured at 450 nm.

Binder	OD450 measurements [absorbance at 450 nm]
B1	2.43
B2	1.79
B3	2.93
B4	1.76
B5	2.54
